# Results as given in patent US20120328512A1 (BRACCO IMAGING S P A, published 2012).
# Bridge positions count the residues as written; N and C are the ends. Square brackets hold non-standard residues; d marks the D form. Primed or numbered codes have the meaning given here. Ends that are not written are not given here. * marks the point of attachment. αGalNAc = CC(=O)N[C@@H]1[C@@H](O)[C@@H](O)[C@@H](CO)O[C@@H]1*; 5FAM = O=C1OC2(c3ccc(O)cc3Oc3cc(O)ccc32)c2ccc(C(=O)*)cc21; Phe(3,4-F2) = N[C@@H](Cc1ccc(F)c(F)c1)C(=O)O; Thf2ca = tetrahydrofuran-2-carboxylic acid; Phe(4-F) = N[C@@H](Cc1ccc(F)cc1)C(=O)O; CF5″ = 5-carboxyfluorescein label; Cha = N[C@@H](CC1CCCCC1)C(=O)O; CF5 = 5-carboxyfluorescein; AEEA = NCCOCCOCC(=O)O
# T1: DDE
# T1 chain 1: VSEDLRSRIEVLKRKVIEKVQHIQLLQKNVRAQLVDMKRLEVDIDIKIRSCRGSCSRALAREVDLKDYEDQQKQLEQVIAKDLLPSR
# T1 chain 2: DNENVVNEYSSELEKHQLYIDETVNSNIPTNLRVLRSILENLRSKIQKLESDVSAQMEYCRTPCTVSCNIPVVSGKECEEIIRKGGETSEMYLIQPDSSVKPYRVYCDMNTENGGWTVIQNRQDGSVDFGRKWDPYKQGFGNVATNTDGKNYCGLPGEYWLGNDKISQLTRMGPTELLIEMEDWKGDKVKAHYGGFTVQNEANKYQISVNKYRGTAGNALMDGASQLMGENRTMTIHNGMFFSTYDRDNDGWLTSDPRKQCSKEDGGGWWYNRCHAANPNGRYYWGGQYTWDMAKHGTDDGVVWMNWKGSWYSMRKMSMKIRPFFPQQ
# T1 chain 3: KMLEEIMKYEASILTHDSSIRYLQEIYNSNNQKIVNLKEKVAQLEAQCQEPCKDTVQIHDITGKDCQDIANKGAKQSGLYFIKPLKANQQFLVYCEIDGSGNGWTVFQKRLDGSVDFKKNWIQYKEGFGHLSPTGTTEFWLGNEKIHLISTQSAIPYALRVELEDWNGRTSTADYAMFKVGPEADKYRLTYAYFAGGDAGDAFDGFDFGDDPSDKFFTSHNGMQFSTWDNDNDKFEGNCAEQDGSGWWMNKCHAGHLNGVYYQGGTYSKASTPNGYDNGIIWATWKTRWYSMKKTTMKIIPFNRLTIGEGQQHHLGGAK
# T1 chain 4: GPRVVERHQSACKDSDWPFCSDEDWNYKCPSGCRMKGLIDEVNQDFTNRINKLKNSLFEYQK
# T1 chain 5: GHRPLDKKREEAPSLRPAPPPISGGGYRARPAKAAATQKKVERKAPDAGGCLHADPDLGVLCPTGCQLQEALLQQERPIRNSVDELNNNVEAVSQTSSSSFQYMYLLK
# T1 chain 6: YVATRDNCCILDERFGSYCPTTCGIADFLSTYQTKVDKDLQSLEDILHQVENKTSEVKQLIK
# B1: Seq000-CF5 (peptide)
# peptide: Ac-WQPCPWESWTFCWDPGGGK(CF5)-NH2
# modifications: disulfide 4-12
# notes: also called standard 5CF-labeled peptide
# B2: Seq038-CF5 (peptide)
# peptide: H-GWQPCPAESWTFCWDPGGGK(5FAM)-NH2
# modifications: disulfide 5-13
# SMILES: C[C@@H]1NC(=O)[C@@H]2CCCN2C(=O)[C@@H](NC(=O)[C@@H]2CCCN2C(=O)[C@H](CCC(N)=O)NC(=O)[C@H](Cc2c[nH]c3ccccc23)NC(=O)CN)CSSC[C@@H](C(=O)N[C@@H](Cc2c[nH]c3ccccc23)C(=O)N[C@@H](CC(=O)O)C(=O)N2CCC[C@H]2C(=O)NCC(=O)NCC(=O)NCC(=O)N[C@@H](CCCCNC(=O)c2ccc3c(c2)C(=O)OC32c3ccc(O)cc3Oc3cc(O)ccc32)C(N)=O)NC(=O)[C@H](Cc2ccccc2)NC(=O)[C@H]([C@@H](C)O)NC(=O)[C@H](Cc2c[nH]c3ccccc23)NC(=O)[C@H](CO)NC(=O)[C@H](CCC(=O)O)NC1=O
# B3: Seq056-CF5 (peptide)
# peptide: RWQPCPAESWTFCWDPGGGK(5FAM)-NH2
# modifications: disulfide 5-13; N-terminus assumed
# SMILES: C[C@@H]1NC(=O)[C@@H]2CCCN2C(=O)[C@@H](NC(=O)[C@@H]2CCCN2C(=O)[C@H](CCC(N)=O)NC(=O)[C@H](Cc2c[nH]c3ccccc23)NC(=O)[C@@H](N)CCCNC(=N)N)CSSC[C@@H](C(=O)N[C@@H](Cc2c[nH]c3ccccc23)C(=O)N[C@@H](CC(=O)O)C(=O)N2CCC[C@H]2C(=O)NCC(=O)NCC(=O)NCC(=O)N[C@@H](CCCCNC(=O)c2ccc3c(c2)C(=O)OC32c3ccc(O)cc3Oc3cc(O)ccc32)C(N)=O)NC(=O)[C@H](Cc2ccccc2)NC(=O)[C@H]([C@@H](C)O)NC(=O)[C@H](Cc2c[nH]c3ccccc23)NC(=O)[C@H](CO)NC(=O)[C@H](CCC(=O)O)NC1=O
# B4: Seq048-CF5 (peptide)
# peptide: Ac-RWQPCPWESWTFCWDPGGGK(5FAM)-NH2
# modifications: disulfide 5-13
# SMILES: CC(=O)N[C@@H](CCCNC(=N)N)C(=O)N[C@@H](Cc1c[nH]c2ccccc12)C(=O)N[C@@H](CCC(N)=O)C(=O)N1CCC[C@H]1C(=O)N[C@H]1CSSC[C@@H](C(=O)N[C@@H](Cc2c[nH]c3ccccc23)C(=O)N[C@@H](CC(=O)O)C(=O)N2CCC[C@H]2C(=O)NCC(=O)NCC(=O)NCC(=O)N[C@@H](CCCCNC(=O)c2ccc3c(c2)C(=O)OC32c3ccc(O)cc3Oc3cc(O)ccc32)C(N)=O)NC(=O)[C@H](Cc2ccccc2)NC(=O)[C@H]([C@@H](C)O)NC(=O)[C@H](Cc2c[nH]c3ccccc23)NC(=O)[C@H](CO)NC(=O)[C@H](CCC(=O)O)NC(=O)[C@H](Cc2c[nH]c3ccccc23)NC(=O)[C@@H]2CCCN2C1=O
# B5: Seq022-CF5 (peptide)
# peptide: H-RGWQPCPWESWTFCWDPGGGK(5FAM)-NH2
# modifications: disulfide 6-14
# SMILES: C[C@@H](O)[C@@H]1NC(=O)[C@H](Cc2c[nH]c3ccccc23)NC(=O)[C@H](CO)NC(=O)[C@H](CCC(=O)O)NC(=O)[C@H](Cc2c[nH]c3ccccc23)NC(=O)[C@@H]2CCCN2C(=O)[C@@H](NC(=O)[C@@H]2CCCN2C(=O)[C@H](CCC(N)=O)NC(=O)[C@H](Cc2c[nH]c3ccccc23)NC(=O)CNC(=O)[C@@H](N)CCCNC(=N)N)CSSC[C@@H](C(=O)N[C@@H](Cc2c[nH]c3ccccc23)C(=O)N[C@@H](CC(=O)O)C(=O)N2CCC[C@H]2C(=O)NCC(=O)NCC(=O)NCC(=O)N[C@@H](CCCCNC(=O)c2ccc3c(c2)C(=O)OC32c3ccc(O)cc3Oc3cc(O)ccc32)C(N)=O)NC(=O)[C@H](Cc2ccccc2)NC1=O
# B6: Seq023-CF5 (peptide)
# peptide: H-RWQPCPWESWTFCWDPGGGK(5FAM)-NH2
# modifications: disulfide 5-13
# SMILES: C[C@@H](O)[C@@H]1NC(=O)[C@H](Cc2c[nH]c3ccccc23)NC(=O)[C@H](CO)NC(=O)[C@H](CCC(=O)O)NC(=O)[C@H](Cc2c[nH]c3ccccc23)NC(=O)[C@@H]2CCCN2C(=O)[C@@H](NC(=O)[C@@H]2CCCN2C(=O)[C@H](CCC(N)=O)NC(=O)[C@H](Cc2c[nH]c3ccccc23)NC(=O)[C@@H](N)CCCNC(=N)N)CSSC[C@@H](C(=O)N[C@@H](Cc2c[nH]c3ccccc23)C(=O)N[C@@H](CC(=O)O)C(=O)N2CCC[C@H]2C(=O)NCC(=O)NCC(=O)NCC(=O)N[C@@H](CCCCNC(=O)c2ccc3c(c2)C(=O)OC32c3ccc(O)cc3Oc3cc(O)ccc32)C(N)=O)NC(=O)[C@H](Cc2ccccc2)NC1=O
# B7: Seq039-CF5 (peptide)
# peptide: Ac-GWQPCPAESWTFCWDPGGGK(5FAM)-NH2
# modifications: disulfide 5-13
# SMILES: CC(=O)NCC(=O)N[C@@H](Cc1c[nH]c2ccccc12)C(=O)N[C@@H](CCC(N)=O)C(=O)N1CCC[C@H]1C(=O)N[C@H]1CSSC[C@@H](C(=O)N[C@@H](Cc2c[nH]c3ccccc23)C(=O)N[C@@H](CC(=O)O)C(=O)N2CCC[C@H]2C(=O)NCC(=O)NCC(=O)NCC(=O)N[C@@H](CCCCNC(=O)c2ccc3c(c2)C(=O)OC32c3ccc(O)cc3Oc3cc(O)ccc32)C(N)=O)NC(=O)[C@H](Cc2ccccc2)NC(=O)[C@H]([C@@H](C)O)NC(=O)[C@H](Cc2c[nH]c3ccccc23)NC(=O)[C@H](CO)NC(=O)[C@H](CCC(=O)O)NC(=O)[C@H](C)NC(=O)[C@@H]2CCCN2C1=O
# Molecular target: T1, DDE
# Experiment: direct binding fluorescence polarization: CF5-labeled peptide titrated with DDE; n = 2
row,Kd [nM],Binder
1,450,Ac-SGSG[AEEA]WQPCPWESWTFCWDPGGGK(CF5″)-NH2 (disulfide 9-17) [Seq017-CF5]
2,470,Ac-SGSGSGSGWQPCPWESWTFCWDPGGGK(CF5)-NH2 (disulfide 12-20) [Seq024-CF5]
3,390,B1
4,230,Ac-GWQPCPWESWTFCWDPGGGK(CF5)-NH2 (disulfide 5-13) [Seq016-CF5]
5,290,Ac-GGRGWQPCPWESWTFCWDPGGGK(CF5)-NH2 (disulfide 8-16) [Seq015-CF5]
6,250,Ac-GPPGWQPCPWESWTFCWDPGGGK(CF5)-NH2 (disulfide 8-16) [Seq014-CF5]

# Molecular target: DDE
# Experiment: as above
row,Kd [nM],Binder
1,240,B2
2,500,Ac-S(αGalNAc)WQPCPWESWTFCWDPGGGK(CF5)-NH2 (disulfide 5-13) [Seq027-CF5]
3,80,Ac-GWQPCPAESWT[Cha]CWDPGGGK(CF5)-NH2 (disulfide 5-13) [Seq055-CF5]
4,1210,Thf2ca-WQPCPWESWTFCWDPGGGK(CF5)-NH2 (disulfide 4-12) [Seq028-CF5]
5,1020,Ac-WQPCPWESWT[Phe(4-F)]CWDPGGGK(CF5)-NH2 (disulfide 4-12) [Seq019-CF5]
6,700,"Ac-WQPCPWESWT[Phe(3,4-F2)]CWDPGGGK(CF5)-NH2 (disulfide 4-12) [Seq020-CF5]"
7,60,B3
8,100,Ac-RGWQPCPAESWT[Cha]CWDPGGGK(CF5)-NH2 (disulfide 6-14) [Seq053-CF5]
9,530,Ac-RGWQPCPWESWTFCWDPGGGK(5FAM)-NH2 (disulfide 6-14; not fully specified) [Seq052-CF5]
10,60,GWQPCPAESWT[Cha]CWDPGGGK(CF5)-NH2 (disulfide 5-13) [Seq051-CF5]
11,50,RGWQPCPAESWT[Cha]CWDPGGGK(CF5)-NH2 (disulfide 6-14) [Seq054-CF5]
12,110,B4
13,30,RWQPCPAESWT[Cha]CWDPGGGK(CF5)-NH2 (disulfide 5-13) [Seq057-CF5]
14,200,Ac-WQPCPWESWT[Cha]CWDPGGGK(CF5)-NH2 (disulfide 4-12) [Seq018-CF5]
15,280,B5
16,110,B6
17,80,Ac-RWQPCPAESWT[Cha]CWDPGGGK(CF5)-NH2 (disulfide 5-13) [Seq050-CF5]
18,210,Ac-RWQPCPAESWTFCWDPGGGK(5FAM)-NH2 (disulfide 5-13; not fully specified) [Seq049-CF5]
19,240,B7
